Source: PMC7883444

Molecular target: HRD1 (HMG-CoA reductase degradation protein 1, synoviolin) (UniProt Q86TM6)
Assay: anti-Myc co-IP, anti-Flag blot
Details: reference: WT Flag-PFKP; sites S386

binding against the reference: stronger
Substance: PFKP (platelet isoform of phosphofructokinase) (from UniProt Q01813) Flag-PFKP S386A
